According to US20250154265A1:

Key:
Assay in all cases: cell-based or functional assay
[1] = biological target: human cMET on cells (Hs746T, H596, EBC-1) (human) (UniProt P08581)
[2] = biological target: WT EGFR on HEKn cells (human) (UniProt P00533)
[3] = biological target: EGFR L858R/T790M on H1975 cells (human) (UniProt P00533)
[4] = biological target: EGFR on H2073 cells (human) (UniProt P00533)

Sequence of human cMET on cells (Hs746T, H596, EBC-1) (human) (P08581 25-1390 limits assumed): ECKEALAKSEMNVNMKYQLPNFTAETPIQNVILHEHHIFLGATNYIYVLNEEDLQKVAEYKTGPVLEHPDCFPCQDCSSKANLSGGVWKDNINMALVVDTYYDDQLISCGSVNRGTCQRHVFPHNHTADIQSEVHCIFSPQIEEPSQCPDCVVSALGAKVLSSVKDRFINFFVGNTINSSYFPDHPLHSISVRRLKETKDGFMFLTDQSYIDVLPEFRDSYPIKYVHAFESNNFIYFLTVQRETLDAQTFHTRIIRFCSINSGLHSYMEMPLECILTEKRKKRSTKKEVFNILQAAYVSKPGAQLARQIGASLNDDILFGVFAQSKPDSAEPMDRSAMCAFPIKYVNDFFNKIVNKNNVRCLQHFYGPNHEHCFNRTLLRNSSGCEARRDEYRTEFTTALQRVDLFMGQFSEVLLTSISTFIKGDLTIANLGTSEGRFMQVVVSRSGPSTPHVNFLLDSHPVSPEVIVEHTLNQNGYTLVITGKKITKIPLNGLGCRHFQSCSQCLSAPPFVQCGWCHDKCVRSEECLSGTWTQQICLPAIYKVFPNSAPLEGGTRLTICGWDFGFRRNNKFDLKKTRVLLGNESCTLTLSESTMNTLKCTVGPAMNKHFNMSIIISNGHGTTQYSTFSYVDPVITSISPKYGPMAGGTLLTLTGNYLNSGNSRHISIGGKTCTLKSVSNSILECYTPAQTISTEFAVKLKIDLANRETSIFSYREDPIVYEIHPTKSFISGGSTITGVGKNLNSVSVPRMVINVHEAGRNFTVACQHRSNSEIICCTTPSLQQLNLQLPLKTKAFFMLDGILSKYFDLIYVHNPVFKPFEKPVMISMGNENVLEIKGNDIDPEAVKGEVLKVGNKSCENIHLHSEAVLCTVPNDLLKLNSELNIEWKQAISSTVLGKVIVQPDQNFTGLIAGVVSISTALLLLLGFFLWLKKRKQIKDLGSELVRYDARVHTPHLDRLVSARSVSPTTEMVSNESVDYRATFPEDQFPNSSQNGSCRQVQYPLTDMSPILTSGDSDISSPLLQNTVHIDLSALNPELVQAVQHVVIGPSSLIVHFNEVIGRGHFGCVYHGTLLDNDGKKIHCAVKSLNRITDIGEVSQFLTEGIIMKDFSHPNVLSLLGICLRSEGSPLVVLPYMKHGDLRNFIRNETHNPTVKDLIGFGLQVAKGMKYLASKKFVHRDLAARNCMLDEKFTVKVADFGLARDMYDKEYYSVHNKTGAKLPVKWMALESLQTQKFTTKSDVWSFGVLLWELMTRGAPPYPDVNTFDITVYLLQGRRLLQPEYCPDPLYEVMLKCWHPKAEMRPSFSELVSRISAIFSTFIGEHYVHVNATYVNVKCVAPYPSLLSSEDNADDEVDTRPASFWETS

Row | Substance | Imax (%), anti-proliferation on EBC-1 [1] | Imax (%), anti-proliferation on Hs746t [1] | IC50, anti-proliferation on HEKn cells [2] | Imax(%), anti-proliferation on HEKn cells [2] | IC50, anti-proliferation on H1975 [3] | Imax (%), anti-proliferation on H1975 [3] | IC50, anti-proliferation on H2073 [4] | Imax (%), anti-proliferation on H2073 [4]
1 | JNJ-372 (bispecific antibody) | 0% | 0% | 5.7 nM | 33.5% | 0.23 nM | 58.4% | 3.46 nM | 83%
2 | LY3164530 (bispecific antibody) | – | – | 0.24 nM | 46.2% | – | – | – | –
